Experimental data as given in patent US20150284437A1 (Harvard, published 2015).
Non-standard residues stand in square brackets, D forms with d. No end group written: not given here. βAla = NCCC(=O)O

T1: N-terminally GST-tagged human β-catenin (human, UniProt P35222 1-781, limits assumed)
T1 construct: not shown: N-terminal GST tag
T1 sequence (looked up): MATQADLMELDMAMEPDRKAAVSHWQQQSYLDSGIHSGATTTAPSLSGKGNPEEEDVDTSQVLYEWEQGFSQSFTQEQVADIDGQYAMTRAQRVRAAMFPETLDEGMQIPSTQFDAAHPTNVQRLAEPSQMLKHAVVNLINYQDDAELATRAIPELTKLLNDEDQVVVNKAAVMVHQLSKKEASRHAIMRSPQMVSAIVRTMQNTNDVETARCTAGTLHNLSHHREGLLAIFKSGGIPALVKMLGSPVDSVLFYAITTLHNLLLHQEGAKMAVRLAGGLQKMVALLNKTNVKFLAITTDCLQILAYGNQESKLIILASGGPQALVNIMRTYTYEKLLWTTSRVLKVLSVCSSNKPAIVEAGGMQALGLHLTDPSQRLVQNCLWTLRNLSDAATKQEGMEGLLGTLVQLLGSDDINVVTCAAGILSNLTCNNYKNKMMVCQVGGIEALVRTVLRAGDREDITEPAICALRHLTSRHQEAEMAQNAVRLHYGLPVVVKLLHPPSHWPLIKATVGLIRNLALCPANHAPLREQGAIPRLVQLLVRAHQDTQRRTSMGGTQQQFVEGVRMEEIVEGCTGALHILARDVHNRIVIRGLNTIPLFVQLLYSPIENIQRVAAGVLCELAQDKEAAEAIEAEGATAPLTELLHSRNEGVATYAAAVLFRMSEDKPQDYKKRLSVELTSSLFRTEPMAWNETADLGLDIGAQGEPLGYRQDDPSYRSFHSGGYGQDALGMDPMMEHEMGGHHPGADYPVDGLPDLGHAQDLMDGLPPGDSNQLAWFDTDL


Target: T1, N-terminally GST-tagged human β-catenin
Assay: fluorescence polarization; FITC-labeled peptide, GST-tagged human β-catenin
Protocol: Peptide sequences derived from TCF4 and Axin were synthesized and fluorescently labeled (FIG. 4b) and the affinity of both binding domains to β-catenin was assessed. The sequence of TCF4 was modified in such a way that the loop (9 amino acids; not visible in the crystal structure) between the extended region and the α-helix was replaced by two β-alanines (βAla). Labeled peptides and GST-tagged human β-catenin were used in a fluorescence polarization assay enabling the determination of the stability of these peptide/β-catenin complexes (FIG. 4c). […] Therefore, the Axin derivative was considered to be the most promising candidate for the hydrocarbon stapling approach.

| Kd [µM] | Binder |
| --- | --- |
| 0.3 | DELISFKDEGEQE[βAla][βAla]ERDLADVKSSLVN (peptide, UniProt Q9NQB0 10-53, looked up, also: FITC label, place not given here, A synthetic fragment, not the whole protein) [TCF4 derived peptide, fluorescently labeled] |
| ~5 | ENPESILDEHVQRVM (also: FITC label, site not given here, also called axin-WT; Axin derived peptide) [Axin wild type sequence peptide ax-WT, fluorescently labeled] |
